Laboratory results from paper PMC8477192, “An ionic lock and a hydrophobic zipper mediate the coupling between an insect pheromone receptor BmOR3 and downstream effectors” (The Journal of Biological Chemistry, 2021).

How the values were obtained:
YFP-BmOR3 [1] = biological target: T1, YFP-BmOR3 (Bombyx mori, UniProt Q5FBE0 1-439); assay: FRET or BRET; arrestin recruitment BRET in living HEK293 cells; YFP-BmOR3 (WT or mutant) with Rluc-fused arrestin; bombykal for 10 min; pertussis toxin without effect; enhanced by BmOrco coexpression
T1 construct: BmOR3, pheromone (bombykal) receptor of Bombyx mori; also called N-terminal YFP-tagged BmOR3; YFP-WT-BmOR3; source: HEK293, transfected, in living cells; not shown: YFP, N-terminal, kept
T1 sequence (looked up): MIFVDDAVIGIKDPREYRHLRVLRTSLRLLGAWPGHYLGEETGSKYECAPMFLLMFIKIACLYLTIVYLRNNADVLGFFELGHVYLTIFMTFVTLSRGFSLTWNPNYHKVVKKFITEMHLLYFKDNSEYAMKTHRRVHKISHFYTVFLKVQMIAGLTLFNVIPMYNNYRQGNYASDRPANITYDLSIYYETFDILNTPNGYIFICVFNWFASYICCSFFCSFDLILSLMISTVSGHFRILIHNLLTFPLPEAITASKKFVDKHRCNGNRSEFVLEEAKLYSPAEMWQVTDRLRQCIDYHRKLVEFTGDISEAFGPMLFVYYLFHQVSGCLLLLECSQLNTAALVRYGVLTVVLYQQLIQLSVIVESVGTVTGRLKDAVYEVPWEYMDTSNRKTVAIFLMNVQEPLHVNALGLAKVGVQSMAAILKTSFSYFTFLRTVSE

YFP-BmOrco (Bombyx mori) [2] = assay: FRET or BRET; saturation BRET in living HEK293 cells, no agonist; fixed Rluc donor, increasing YFP acceptor plasmid; coelenterazine h 5 μM; Lyn-YFP as negative control
YFP-BmOrco (Bombyx mori) [3] = assay: FRET or BRET; intermolecular BRET in living HEK293 cells after bombykal for 5 min (dose response or ΔBRET); Rluc-BmOR3 with YFP-BmOrco, or Rluc-BmOrco with YFP-BmOR3; pretreatment with 100 ng/ml pertussis toxin without significant effect
YFP-BmOR3 [4] = biological target: T1, YFP-BmOR3; assay: intermolecular BRET; settings: bombykal-induced, read off a plot
[5] = biological target: Rluc-BmOrco (Bombyx mori)
Rluc-BmOrco = assay: intermolecular BRET; settings: bombykal-induced, read off a plot
[6] = HEK293 cells, parent: est. 0.027
[7] = HEK293 cells, parent: est. 0.053

response (YFP-BmOR3 [4]; [6])	response (Rluc-BmOrco; [7])	Substance	further results
–	–	Rluc-BmArr (natural protein)	EC50 of bombykal for the BRET increase (quantity not given) (YFP-BmOR3 [1]): 90 nM
–	–	Rluc-BmOR3 (receptor)	BRET50 (receptor expression ratio) (receptor expression ratio) (YFP-BmOrco (Bombyx mori) [2]): 1; EC50 of bombykal for the BRET increase (YFP-BmOrco (Bombyx mori) [3]): 36 nM
0.031 ΔBRET	–	Rluc-BmOrco F427A; I430A	–
0.005 ΔBRET	–	Rluc-BmOrco K437E	response (YFP-BmOR3 [4]; parent: est. 0.038): 0 ΔBRET
0.029 ΔBRET	–	Rluc-BmOrco L451A; L458A	–
0.031 ΔBRET	–	Rluc-BmOrco V428A; V431A	–
-0.006 ΔBRET	–	Rluc-BmOrco Y464A; V467A; L468A; L471A	response (YFP-BmOR3 [4]; parent: est. 0.015): -0.005 ΔBRET
–	–	YFP-BmOR3 (from UniProt Q5FBE0 1-439) (receptor)	bombykal (1 μM)-stimulated Ca2+ response (CalfluxVTN BRET sensor) in HEK293 cells coexpressing BmOR3 and BmOrco, relative to angiotensin II through AT1R (% of the AT1R response) [5]: 70
–	–	YFP-BmOR3 (from UniProt Q5FBE0) E403K	response (Rluc-BmOrco; parent: est. 0.038): 0 ΔBRET
–	0.003 ΔBRET	YFP-BmOR3 (from UniProt Q5FBE0) F428A; F433A	response (Rluc-BmOrco; parent: est. 0.015): 0.003 ΔBRET
–	0.042 ΔBRET	YFP-BmOR3 (from UniProt Q5FBE0) I396A; M399A	–
–	0.04 ΔBRET	YFP-BmOR3 (from UniProt Q5FBE0) L410A; L412A	–
–	0.041 ΔBRET	YFP-BmOR3 (from UniProt Q5FBE0) R391E; K392E	–
